doi:10.1101/190033 (bioRxiv, 2017)

Key:
SEC [1] = target: the molecule itself; experiment: SEC
GEMMA = target: the molecule itself; experiment: GEMMA
SEC [2] = target: the molecule itself; experiment: SEC; remark: listed apart in the source
crystal structure = target: the molecule itself; experiment: crystal structure

B1: Leeuwenhoekiella blandensis class I ribonucleotide reductase radical-generating subunit NrdBi (NrdB), wild type (enzyme, Leeuwenhoekiella blandensis MED217, UniProt A3XHF9 1-427, looked up)
chain: MSSQEIKKIIKRDYSTAPFVLEKITNAIANAMAALGHGSEQDAKLISMQVYESLLNNKEQESEYIPTVEQVQDMVEDKLMSSEFHDVAKAYIIYRNKRALERKTNIFEKRINLKPYEYPELNEYVAAIRHSYWIHTEFNFTSDIQDFKTGLSEVERSAIKNTMLAISQIEVAVKTFWGDVHHRLPKPEIAAVGATFAESEVRHHDAYSHLLEILGLNEEFKELKKKPVIMKRVHYLETSLKHAKSDDDREYTESILLFALFIEHVSLFSQFLIIMAFNKHKNMLKGISNAVEATSKEEQIHGDFGVDIINIIKKENPEWFDEEHNNLIKEMCLNSFEAESKVVDWIFEKGELDFLPKAVINEFLKNRFNKSLEAIGLEKLFDIDEALLQETEWFDDEIIGTKHGDFFVKRSINYSKRTQSITSDDLF
stoichiometry N (SEC [1]): 2 | stoichiometry N (GEMMA): 4

B2: Leeuwenhoekiella blandensis class I ribonucleotide reductase catalytic subunit NrdAi (NrdA) (enzyme, Leeuwenhoekiella blandensis MED217, UniProt A3XHF8 1-600, looked up)
chain: MRENTTKLENSTETNVQHTKDNDLLKARRDALQDATEKNTDEPSFDWLTEHSRSFLAAGYLSEGVSAEERIREIADRAEEILRMPGFSDKFYKYMGEGYFSLASPVWSNFGKKRGLPISCFGSHIDDDMGNILYTQSEVGMMSKLGGGTSGYFGKIRHRGAAVKNNGYASGAVHIMQLFDKMVDVVSQGSVRRGRFSPYLPISHPDIKEFLEIGTEGNSIQQLTHGVTVDSTWMQEMIDGDTDKREVWAKVLQRRGEMGYPYIFYTDNANNGKPDVYKDKGHDIYASNLCTEIMLPSSDEWSFVCVLSSINVLHYDKWKNTDAVETMVCFLDAVLTEFIDKLEEYRDSDNRDHRQTFMFMERAYNFAKSNRALGLGVLGWHSLLQSKRHAFDSQEAYDLNSEIFREIKQRSYKASEELAEKFGEPETLKGYGRRNATLNAIAPTTSSAFILGQVSQGIEPIWSNVYVKDIAKIKTTIKNPFLEELFEEKGMNTPEVWRSVRDNDGSVQHLEFLTEQEKDVFKTYAEIDQMAIIYQAANRQNHIDQGQSINLLVHPDMPIKEINKIHITAWKLGLKSLYYQHSMNAAQKFKQKKECVSCEA
stoichiometry N (SEC [2]): 2

B3: Leeuwenhoekiella blandensis NrdB, thrombin-cleaved (hexahistidine tag removed), used for crystallization (enzyme, Leeuwenhoekiella blandensis MED217)
chain: GSHMSSQEIKKIIKRDYSTAPFVLEKITNAIANAMAALGHGSEQDAKLISMQVYESLLNNKEQESEYIPTVEQVQDMVEDKLMSSEFHDVAKAYIIYRNKRALERKTNIFEKRINLKPYEYPELNEYVAAIRHSYWIHTEFNFTSDIQDFKTGLSEVERSAIKNTMLAISQIEVAVKTFWGDVHHRLPKPEIAAVGATFAESEVRHHDAYSHLLEILGLNEEFKELKKKPVIMKRVHYLETSLKHAKSDDDREYTESILLFALFIEHVSLFSQFLIIMAFNKHKNMLKGISNAVEATSKEEQIHGDFGVDIINIIKKENPEWFDEEHNNLIKEMCLNSFEAESKVVDWIFEKGELDFLPKAVINEFLKNRFNKSLEAIGLEKLFDIDEALLQETEWFDDEIIGTKHGDFFVKRSINYSKRTQSITSDDLF
stoichiometry N (crystal structure): 4
